Test results published in the supplement of paper PMC10126150.
± gives the standard deviation of the averaged measurements.
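Further: ATP exposure 15 min at 22 °C before imaging.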

The sequences below were run on ATP (assay: switch fluorescence ratio, 500 uM ATP over buffer (Cy3 cluster intensity, sum of 5 cycles each) (fold (ratio)); higher = stronger signal-on switching upon ATP binding; sequences stand for … in TCGTCGGCAGCGTCAGATGTGTATAAGAGACAGTTTTTTTTTTTTTTTTTTTTTTTTT…TC). Conditions: aptamer strand: ATP DNA aptamer (quencher-CACCTGGGGGAGTATTGCGGAGGAAGG + anchor), 100 nM annealed; ATP concentration: 500 uM.
How it was run: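 Between each of five buffer/ATP cycles, the flow-cell was stripped with NaOH and re-annealed. Each cycle imaged Cy3-labelled switching-strand clusters, annealed to 100 nM quencher-labelled ATP aptamer on a modified Illumina MiSeq flow-cell, first in selection buffer and then after 15 min with 500 uM ATP at 22 °C. The fluorescence ratio is summed target-cycle over summed buffer-cycle Cy3 intensity per cluster, averaged per switch-domain sequence, with clusters outside 100-1000 RFU excluded.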
Work on TTCGGGGAGG yielded a switch fluorescence ratio of 1.02 ± 0.019.
In the case of GGTTTGGAGA, the switch fluorescence ratio is reported as 1.024 ± 0.0091.
AGAATCCAGC gave a switch fluorescence ratio of 0.982 ± 0.021.
With AATTTGCTTT the switch fluorescence ratio was 0.986 ± 0.036.
TCAGGTAGCG gave a switch fluorescence ratio of 1.004 ± 0.0061.
With TTAGTTTGGG the switch fluorescence ratio was 1.02 ± 0.016.
For AAAATGAAGT, the switch fluorescence ratio was 1.03 ± 0.048.
In the case of GGCAGGTTTT, the switch fluorescence ratio is reported as 0.996 ± 0.035.
TTCTGTGCGG was tested, and the switch fluorescence ratio was 0.978 ± 0.029.
ATTGTCATGT gave a switch fluorescence ratio of 1.047 ± 0.0062.
With AATTACCAAA the switch fluorescence ratio was 1.01 ± 0.072.
In the case of ATTGTCTATA, the switch fluorescence ratio is reported as 0.981 ± 0.011.
Sequence TTCCGGGTGA has a switch fluorescence ratio of 1.23 ± 0.31.
Work on GACTCCGATT yielded a switch fluorescence ratio of 2.28 ± 0.1.
In the case of ACATGAAGCA, the switch fluorescence ratio is reported as 1.06 ± 0.025.
For ATCGTCACGG, the switch fluorescence ratio was 1.022 ± 0.0012.
For TTTAGGTATG, the switch fluorescence ratio was 0.987 ± 0.03.
TATAGAGGG gave a switch fluorescence ratio of 0.969 ± 0.011.
TTGAGCTAGT gave a switch fluorescence ratio of 1 ± 0.032.
In the case of AGGGGGGTAA, the switch fluorescence ratio is reported as 0.993 ± 0.026.
CGTATGAAAT was tested, and the switch fluorescence ratio was 0.9985 ± 0.0089.
With TTGTGATTGT the switch fluorescence ratio was 1.01 ± 0.016.
AAATTGGACT showed a switch fluorescence ratio of 1.02 ± 0.033.
In the case of CTGACAAGGC, the switch fluorescence ratio is reported as 1.61 ± 0.27.
With ATGATGAAGT the switch fluorescence ratio was 1.02 ± 0.017.
In the case of ACTTCACTCG, the switch fluorescence ratio is reported as 1.42 ± 0.098.
AGCTATGTGG showed a switch fluorescence ratio of 0.9812 ± 0.0064.
In the case of AGGGCGCGCT, the switch fluorescence ratio is reported as 1.01 ± 0.034.
With ACGGGGATCA the switch fluorescence ratio was 0.981 ± 0.045.
With GACGGCGCAG the switch fluorescence ratio was 1.06 ± 0.14.
With TGATTGAGCC the switch fluorescence ratio was 0.998 ± 0.047.
Sequence GGAATAGTGC has a switch fluorescence ratio of 1.01 ± 0.052.
In the case of TACAGATGT, the switch fluorescence ratio is reported as 1.028 ± 0.01.
Work on TTCTCTTTTG yielded a switch fluorescence ratio of 0.993 ± 0.031.
Work on TGGAGAAGGC yielded a switch fluorescence ratio of 0.977 ± 0.12.
Work on ATCTGATGCG yielded a switch fluorescence ratio of 0.981 ± 0.1.
Sequence TTATTGGTCC has a switch fluorescence ratio of 0.989 ± 0.045.
TTTATGTAAG showed a switch fluorescence ratio of 0.988 ± 0.065.
TGAACTTAGT gave a switch fluorescence ratio of 0.995 ± 0.02.
TTAAGTAGGG gave a switch fluorescence ratio of 1.01 ± 0.029.
For TTTGTGATTG, the switch fluorescence ratio was 0.985 ± 0.094.
AGTTTTACAA gave a switch fluorescence ratio of 1.03 ± 0.012.
In the case of ATGTTTGGGG, the switch fluorescence ratio is reported as 1.03 ± 0.084.
Work on TGTACGATGC yielded a switch fluorescence ratio of 1.12 ± 0.014.
In the case of TCGGCCCGTT, the switch fluorescence ratio is reported as 1.01 ± 0.018.
TTATAGGCGT was tested, and the switch fluorescence ratio was 1 ± 0.02.
CGGGGAAATC showed a switch fluorescence ratio of 1.03 ± 0.035.
For AGGGGGCGTA, the switch fluorescence ratio was 0.9896 ± 0.0086.
In the case of GGGCTATTTT, the switch fluorescence ratio is reported as 0.991 ± 0.031.
Sequence TTGACCGACT has a switch fluorescence ratio of 0.973 ± 0.043.
For AATAGGAGGC, the switch fluorescence ratio was 1.05 ± 0.053.
CGGCGAAGAT gave a switch fluorescence ratio of 1.01 ± 0.025.
TTATCCAGGC was tested, and the switch fluorescence ratio was 1.02 ± 0.12.
With ATTCTACTTA the switch fluorescence ratio was 1.01 ± 0.018.
CGGTGATTTT was tested, and the switch fluorescence ratio was 1.02 ± 0.03.
With GGTTGGTGCG the switch fluorescence ratio was 1.1 ± 0.074.
GCGACCAGGC showed a switch fluorescence ratio of 1.14 ± 0.079.
In the case of TATCGACAAT, the switch fluorescence ratio is reported as 1.37 ± 0.47.
With GGGCAAATTG the switch fluorescence ratio was 0.968 ± 0.028.
In the case of ATGTTTCATT, the switch fluorescence ratio is reported as 0.9727 ± 0.0052.
TGATGGGGTT was tested, and the switch fluorescence ratio was 0.9969 ± 0.0078.
Sequence GCTCCTCGCT has a switch fluorescence ratio of 1.23 ± 0.081.
For GGTCTGCTTA, the switch fluorescence ratio was 0.9828 ± 0.0065.
ATGGGGTAGG was tested, and the switch fluorescence ratio was 0.995 ± 0.022.
For TCGTTAATGT, the switch fluorescence ratio was 1.01 ± 0.035.
Work on ATGCGGCTG yielded a switch fluorescence ratio of 1.04 ± 0.11.
ATGACGGTGG showed a switch fluorescence ratio of 0.94 ± 0.014.
For GGCGACAGAG, the switch fluorescence ratio was 1.04 ± 0.051.
GATAAAATGC gave a switch fluorescence ratio of 1.02 ± 0.044.
With CAGTTCGGAA the switch fluorescence ratio was 1.07 ± 0.027.
GGGTCTGTGG gave a switch fluorescence ratio of 0.9812 ± 0.0062.
CTAAATAGCA showed a switch fluorescence ratio of 1.01 ± 0.016.
With TCATGCTTTT the switch fluorescence ratio was 1.03 ± 0.019.
For TGAAAAACCG, the switch fluorescence ratio was 1.14 ± 0.12.
ATGTAGGCCA gave a switch fluorescence ratio of 1.04 ± 0.053.
In the case of CAATGGGGCT, the switch fluorescence ratio is reported as 1.02 ± 0.038.
GGGATCAGAA was tested, and the switch fluorescence ratio was 0.999 ± 0.074.
TTCAGGCGGT showed a switch fluorescence ratio of 0.992 ± 0.025.
Work on TCGATGATCG yielded a switch fluorescence ratio of 0.963 ± 0.046.
In the case of TGGAATAGAA, the switch fluorescence ratio is reported as 1.01 ± 0.02.
In the case of GCGAGGGAAC, the switch fluorescence ratio is reported as 1.03 ± 0.015.
In the case of TGGAAATAAA, the switch fluorescence ratio is reported as 0.9968 ± 0.0051.
AGATTTTTGA showed a switch fluorescence ratio of 0.942 ± 0.069.
Work on GAGAAGGGTG yielded a switch fluorescence ratio of 1.01 ± 0.071.
Sequence GTCGATGGGG has a switch fluorescence ratio of 0.969 ± 0.014.
CACGGTTTCT was tested, and the switch fluorescence ratio was 1.09 ± 0.13.
Work on AGTATGTGAA yielded a switch fluorescence ratio of 0.97601 ± 0.00029.
For CATTTTGCGC, the switch fluorescence ratio was 1.04 ± 0.042.
In the case of CTGGGGGACG, the switch fluorescence ratio is reported as 1.02 ± 0.016.
For CGGAGGTTTT, the switch fluorescence ratio was 0.993 ± 0.049.
Work on CCCTTAGTGC yielded a switch fluorescence ratio of 1.14 ± 0.022.
With ATGTGGGGGC the switch fluorescence ratio was 0.994 ± 0.03.
CCTAGGGGGC gave a switch fluorescence ratio of 1.24 ± 0.29.
For CATTGGGGCG, the switch fluorescence ratio was 0.926 ± 0.019.
GACGGTTGGG showed a switch fluorescence ratio of 0.983 ± 0.026.
CTGCGGGGAG showed a switch fluorescence ratio of 1.03 ± 0.037.
With CGTAAAGCCT the switch fluorescence ratio was 0.991 ± 0.02.
With TAAGGGAAGC the switch fluorescence ratio was 1.04 ± 0.04.
CTAATTGGCG gave a switch fluorescence ratio of 1.02 ± 0.04.
TCGGTTGTCC was tested, and the switch fluorescence ratio was 0.978 ± 0.018.
